Data published in patent publication US20150259419A1 (PROTHENA BIOSCIENCES, published 2015).
Numbering of substitutions follows the chain as printed.

T1: human MCAM domain 3 (MCAMhFc domain construct) (human, UniProt P43121 244-321)
T1 construct: also called amino acids 244-321; not shown: human Fc portion
T1 sequence: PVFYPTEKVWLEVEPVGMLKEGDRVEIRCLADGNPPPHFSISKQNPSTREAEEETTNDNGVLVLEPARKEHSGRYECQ

T2: full length MCAMhFc protein (extracellular domain of human MCAM fused to human IgG) (human, UniProt P43121 24-559)
T2 construct: also called hMCAM-Fc; Human MCAM-Fc protein; not shown: human IgG (Fc) portion
T2 chain: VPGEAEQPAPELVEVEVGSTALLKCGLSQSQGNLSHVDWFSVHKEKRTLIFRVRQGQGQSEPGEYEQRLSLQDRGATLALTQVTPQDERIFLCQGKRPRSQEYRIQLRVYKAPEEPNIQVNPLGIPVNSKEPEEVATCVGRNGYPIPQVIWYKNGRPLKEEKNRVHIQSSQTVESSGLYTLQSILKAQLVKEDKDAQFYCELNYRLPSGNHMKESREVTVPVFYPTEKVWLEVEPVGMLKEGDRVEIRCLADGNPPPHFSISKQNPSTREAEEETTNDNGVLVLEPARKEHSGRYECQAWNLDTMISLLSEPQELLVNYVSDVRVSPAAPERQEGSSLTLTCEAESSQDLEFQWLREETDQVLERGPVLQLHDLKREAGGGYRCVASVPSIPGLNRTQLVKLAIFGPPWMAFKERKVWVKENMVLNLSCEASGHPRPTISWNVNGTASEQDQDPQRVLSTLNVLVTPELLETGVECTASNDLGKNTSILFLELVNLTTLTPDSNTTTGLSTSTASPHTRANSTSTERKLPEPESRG

T3: combination of human MCAM domains 1 and 2 (MCAMhFc domain construct) (human, UniProt P43121 19-242)
T3 construct: not shown: human Fc portion
T3 sequence: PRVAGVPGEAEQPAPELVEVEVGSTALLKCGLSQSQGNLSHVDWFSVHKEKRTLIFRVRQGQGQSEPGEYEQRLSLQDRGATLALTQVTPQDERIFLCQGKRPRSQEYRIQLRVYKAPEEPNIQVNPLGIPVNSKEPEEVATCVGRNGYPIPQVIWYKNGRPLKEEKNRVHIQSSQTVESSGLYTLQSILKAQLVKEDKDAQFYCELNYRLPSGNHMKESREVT

T4: human MCAM domain 1 (MCAMhFc domain construct) (human, UniProt P43121 19-129)
T4 construct: also called amino acids 19-129; not shown: human Fc portion (captured on anti-human IgG Fc biosensors)
T4 sequence: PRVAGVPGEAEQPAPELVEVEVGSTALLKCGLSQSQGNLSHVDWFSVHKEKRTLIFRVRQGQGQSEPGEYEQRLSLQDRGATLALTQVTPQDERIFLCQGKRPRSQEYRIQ

T5: human MCAM domain 2 (MCAMhFc domain construct) (human, UniProt P43121 139-242)
T5 construct: not shown: human Fc portion
T5 sequence: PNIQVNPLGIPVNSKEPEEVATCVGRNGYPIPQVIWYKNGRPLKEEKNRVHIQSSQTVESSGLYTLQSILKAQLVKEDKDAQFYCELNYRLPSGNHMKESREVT

B1: mouse anti-human MCAM monoclonal antibody clone 1174.1.3 (antibody, V domains shown)
VH: QIQLVQSGPELKKPGETVKISCKASGYTFTNYGMNWVKQAPGKGLKWMGWINTYTGEPTYADDFKGRFALSLETSASTAYLQINNLKNEDMATYFCARYRYNKYERAMDYWGQGTSVTVSS
VL: DIVLTQSPASLAVSLGQRATISCRASKSVSTSGYSYMYWYQQKPGQPPKLLIYLASNLESGVPARFSGSGSGTDFTLNIHPVEEEDAATYYCQHSRELPFTFGSGTKLEIK
notes: Mouse hybridoma antibody
B2: mouse anti-human MCAM monoclonal antibody clone 1414.1.2 (antibody, V domains shown)
VH: EIQLQQTGPELVKPGASVKISCKASGYSFTDYIMLWVKQSHGKSLEWIGNINPYSGSSGYNLKFKGKATLTVDKSSSTAYMQLNSLTSEDSAVYYCARGKDFAMDYWGQGTSVTVSS
VL: DIVMSQSPSSLAVSAGEKVTMSCKSSQSLLNSSTRKNFLAWYQQKPGQSPKLLIYWASTRESGVPDRFTGSGSGTDFTLTISSVQAEDLAVYYCKQSYNRYTFGGGTKLEIK
notes: Mouse hybridoma antibody
B3: mouse anti-human MCAM monoclonal antibody clone 1415.1.1 (antibody, V domains shown)
VH: QVQLQQPGAELVQPGAPVKLSCKASGYIFTSYWMNWVKQRPGRGLEWIGRIDPSDSKIHYNQKFKDKATLTVDRSSSTAYIQLGSLTSEDSAVYYCAKEGGLRRGDYAMDYWGQGTSVTVSS
VL: DIVMTQSPATLSVTPGDRVSLSCRASQSISDYLHWYQQKSHESPRLLIKYASQSISGIPSRFSGSGSGSDFTLSINSVEPEDVGVYYCQNGHNFPRTFGGGTKLEIK
notes: Mouse hybridoma antibody
B4: mouse anti-human MCAM monoclonal antibody clone 1749.1.3 (antibody, V domains shown)
VH: DVKLVESGGDLVKPGGSLKLSCAASGFTFSSYIMSWVRQTPEKRLEWVATISSGGSSTYYPDSVKGRFTISRDNAKNTLYLQMSSLKSEDTAMYYCTRDDDYDVKVFAYWGQGTLVTVSA
VL: B2 VL with S22N, Q27R, S33R, T34I, F38Y, R100L, Y101L, G105A, I111L
notes: Mouse hybridoma antibody
B5: human MCAM, full length, expressed on transfected cells (receptor)
chain: VPGEAEQPAPELVEVEVGSTALLKCGLSQSQGNLSHVDWFSVHKEKRTLIFRVRQGQGQSEPGEYEQRLSLQDRGATLALTQVTPQDERIFLCQGKRPRSQEYRIQLRVYKAPEEPNIQVNPLGIPVNSKEPEEVATCVGRNGYPIPQVIWYKNGRPLKEEKNRVHIQSSQTVESSGLYTLQSILKAQLVKEDKDAQFYCELNYRLPSGNHMKESREVTVPVFYPTEKVWLEVEPVGMLKEGDRVEIRCLADGNPPPHFSISKQNPSTREAEEETTNDNGVLVLEPARKEHSGRYECQAWNLDTMISLLSEPQELLVNYVSDVRVSPAAPERQEGSSLTLTCEAESSQDLEFQWLREETDQVLERGPVLQLHDLKREAGGGYRCVASVPSIPGLNRTQLVKLAIFGPPWMAFKERKVWVKENMVLNLSCEASGHPRPTISWNVNGTASEQDQDPQRVLSTLNVLVTPELLETGVECTASNDLGKNTSILFLELVNLTTLTPDSNTTTGLSTSTASPHTRANSTSTERKLPEPESRGVVIVAVIVCILVLAVLGAVLYFLYKKGKLPCRRSGKQEITLPPSRKTELVVEVKSDKLPEEMGLLQGSSGDKRAPGDQGEKYIDLRH
notes: CHO cells transfected with the full length human MCAM gene; also called hMCAM; CD146

These binders were tested against T1, human MCAM domain 3 (MCAMhFc domain …) (assay: ForteBio Octet Red, MCAMhFc domains on anti-human IgG Fc biosensors, antibody at 5 ug/ml).
Text: (§1) The following protocol was used: ForteBio anti-human IgG Fc biosensors were used to immobilize various MCAMhFc domains including full length MCAMhFc protein on to biosensor surface. […] After loading these samples into a black 96 well plate, the Octet Red was programmed as follows: 60 seconds for baseline #1; 180 seconds for loading various domains; 60 seconds for baseline #2; 180 seconds for association of antibody to domain; and 240 seconds for dissociation of antibody from domain.
(§2) 1. MCAMhFc final concentration@5 ug/ml [0374] […] 3. ForteBio anti-human IgG Fc Capture (AHC) biosensors for kinetics experiments, cat #18-5060 [0376] 4. Block 96 well plate from Greiner Bio-one, cat #655209 [0377] 5. ForteBio Octet Red machine [0378] 6. Fresh tissue culture medium, DMEM with 20% FCS, was used as buffer for dilution

Row | binding result | Binder
1 | binds | B1
2 | binds | B2
3 | binds | B3
4 | binds | B4

Biological target: T2, full length MCAMhFc protein …
Test: summary of Examples 2 and 3

Row | binding result | Binder
5 | binds | B1
6 | binds | B2
7 | binds | B3
8 | binds | B4

Biological target: B5
Test: blocking of laminin 411 (20 ug/ml) binding to CHO cells expressing human MCAM, flow cytometry
Experimental: The 87 independent mouse fusion clones and 26 independent rat fusion clones described in Example 1 above as being capable of (i) binding to human MCAM, and (ii) blocking the interaction between human MCAM and the α-4 chain of laminin were further characterized as follows. First, IC50 quantitation for the ability of the monoclonal antibody to block the binding of human MCAM to the α-4 chain of laminin was determined as follows. CHO cells expressing human MCAM were incubated with an anti-human MCAM antibody (at various concentrations) for 30 minutes at 4 degrees Celsius. […] Unbound laminin was then washed away, and the laminin bound to the surface of the cells was detected with fluorescently labeled anti-laminin antibodies. After washing, the amount of laminin bound to the surface was detected by flow cytometry, and IC50s were calculated based on the mean fluorescent intensity.
Amino acid and nucleic acid sequences of the heavy and light chains of these antibodies, and their hypervariable regions, are provided in SEQ ID NOs:29-92. […] As such, each of these specific monoclonal antibodies was very capable of binding to human MCAM and inhibiting the interaction of cell-expressed human MCAM with its α-4 laminin binding ligand.

Row | IC50 [µg/mL] | Binder
9 | 0.469 | B1
10 | 0.431 | B2
11 | 0.307 | B3
12 | 0.545 | B4

These binders were tested against T6, recombinant laminin 511 (UniProt O15230 36-3695; P07942 22-1786; P11047 34-1609) (assay: CHO cells transfected with human MCAM incubated with laminin, pan-laminin antibody, flow cytometry).
T6 construct: also called laminin 10 (α5β1γ1)

Row | binding result | Binder
13 | no binding (tested: 10 µg/ml) | B5

The binders below were run against T3, combination of human MCAM domains 1 and … (assay: ForteBio Octet Red, MCAMhFc domains on anti-human IgG Fc biosensors).
Text: as §1, §2

Row | binding result | Binder
14 | no binding (tested: 5 ug/ml) | B1
15 | no binding (tested: 5 ug/ml) | B2
16 | no binding (tested: 5 ug/ml) | B3
17 | no binding (tested: 5 ug/ml) | B4

Each binder was assayed against T4, human MCAM domain 1 (MCAMhFc domain …) in the same assay as above.
Text: as §1, §2

Row | binding result | Binder
18 | no binding (tested: 5 ug/ml) | B1
19 | no binding (tested: 5 ug/ml) | B2
20 | no binding (tested: 5 ug/ml) | B3
21 | no binding (tested: 5 ug/ml) | B4

Each binder was assayed against T5, human MCAM domain 2 (MCAMhFc domain …) in the same assay as above.
Text: as §1, §2

Row | binding result | Binder
22 | no binding (tested: 5 ug/ml) | B1
23 | no binding (tested: 5 ug/ml) | B2
24 | no binding (tested: 5 ug/ml) | B3
25 | no binding (tested: 5 ug/ml) | B4
